# Results published in patent publication US20030215450A1 (published 2003).
# B1: human RANK-Fc fusion protein (Fc fusion, UniProt Q9Y6Q6 30-212, looked up)
# chain: IAPPCTSEKHYEHLGRCCNKCEPGKYMSSKCTTTSDSVCLPCGPDEYLDSWNEEDKCLLHKVCDTGKALVAVVAGNSTTPRRCACTAGYHWSQDCECCRRNTECAPGLGAQHPLQLNKDTVCKPCLAGYFSDAFSSTDKCRPWTNCTFLGKRVEHHGTEKSDAVCSSSLPARKPPNEPHVYLP
# notes: Produced in CHO cells; not shown: Fc part
# B2: mouse monoclonal antibody 2A4 (antibody, mouse IgG2a, V domains shown)
# VH: EVQLVESGGDLVKPGGSLKLSCAASGFTFSRYGMSWVRQTPDKRLEWVATISSGGSYIYYPDSVKGRFTISRDNAKNTLYLQMSSLKSEDTAMYYCARLDGYNYRWYFDVWGTGTTVTVSS
# VL: DIVMTQSHKFMSTSVGDRVSITCKASQDVSTAVAWYQQKPGQSPKLLIYSASYRYTGVPDRFTGSGSGTDFTFTISSVQAEDLAVYYCQQHYSSPRTFGGGTNLEIK
# notes: the latter are followed; also called mAb 2A4; 2A4 Mab
# B3: OPG-Fc (Fc fusion, UniProt O00300 22-194, looked up)
# chain: ETFPPKYLHYDEETSHQLLCDKCPPGTYLKQHCTAKWKTVCAPCPDHYYTDSWHTSDECLYCSPVCKELQYVKQECNRTHNRVCECKEGRYLEIEFCLKHRSCPPGFGVVQAGTPERNTVCKRCPDGFFSNETSSKAPCRKHTNCSVFGLLLTQKGNATHDNICSGNSESTQK
# notes: Construct not described; also called osteoprotegerin-Fc; not shown: Fc part; not described
# What was measured:
# [1] = target: T1, soluble human RANKL protein (human, UniProt O14788 140-317, limits assumed, biotinylated with NHS-biotin at a 20:1 molar ratio of NHS-biotin to protein (competition ELISA only)); assay: competition ELISA: biotinylated shRANKL (0.43 nM) binding to coated RANK-Fc, competitor in solution
# T1 construct: Soluble form; also called shRANKL; sRANKL
# T1 sequence (looked up): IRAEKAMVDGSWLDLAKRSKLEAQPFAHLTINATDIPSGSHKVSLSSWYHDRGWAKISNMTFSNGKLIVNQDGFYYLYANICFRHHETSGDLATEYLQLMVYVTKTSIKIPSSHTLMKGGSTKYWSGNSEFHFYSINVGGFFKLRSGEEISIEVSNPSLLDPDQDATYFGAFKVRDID
# Description: A. A competition ELISA was established using a human RANK-Fc fusion protein coated on plastic and a biotinylated soluble human RANKL protein for detection in solution. The RANK-Fc and RANKL proteins were produced in CHO cells and Pichia pastoris, respectively, and purified to >90% homogeneity. The shRANKL (soluble, human RANKL) protein was biotinylated at a 20:1 molar ratio of NHS-biotin to protein (Pierce, Rockford, Ill.) according to the manufacturer's specifications. 96-well ELISA plates were coated overnight at 4° C. with 50 ng/well […] RANK-Fc in pH 9.6 carbonate-bicarbonate buffer. Plates were washed in pH 7.4 Tris-Saline buffer containing 0.1% Tween 20 and blocked for 2 h at RT in 1% BSA/PBS. Competitor proteins (RANK-Fc; death receptor 5 (DR5)-Fc; OPG-Fc; RANKL mAb 2A4) were diluted in 0.01% Tween 20/PBS and added to wells prior to the addition of biotinylated shRANKL (0.43 nM) and the combined samples were incubated for 2 hrs at room temperature. The amount of biotinylated shRANKL bound to coated RANK-Fc (±competitor) was measured using alkaline phosphatase conjugated streptavidin. The substrate for signal detection was 105 PNPP (Pierce Inc., Rockford, Ill.) and absorbance measured at 405 nm using a Spectra Max 340 plate reader.
# [2] = target: T1, soluble human RANKL protein; assay: cell-based or functional assay
# [3] = target: T1, soluble human RANKL protein; assay: not described with the number; paragraph 33 defines high affinity as determined by optical biosensor analysis
# murine RANK-L = target: T2, murine RANK-L (murine, UniProt O35235 158-316, limits assumed); assay: not described
# T2 sequence (looked up): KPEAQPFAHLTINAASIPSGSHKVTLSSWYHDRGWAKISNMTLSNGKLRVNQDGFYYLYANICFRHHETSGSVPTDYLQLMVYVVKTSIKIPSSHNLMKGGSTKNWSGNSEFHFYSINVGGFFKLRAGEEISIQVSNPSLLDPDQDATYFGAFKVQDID
Binder,IC50 [1] [nM],"IC50, formation of multinuclear cells, human monocyte osteoclastogenesis with 50 ng/ml human soluble RANKL plus M-CSF [2] [µg/mL]",Kd [3] [nM],binding result (murine RANK-L)
B1,~6,~0.5,,
B2,~2,~4,~0.1,no binding
B3,~0.5,,,
